Results reported in publication PMC12000442 (Nature Communications, 2025).

Molecular target: T1, NAA10^R4S-3xFLAG (human, UniProt P41227 1-235, R4S)
T1 sequence: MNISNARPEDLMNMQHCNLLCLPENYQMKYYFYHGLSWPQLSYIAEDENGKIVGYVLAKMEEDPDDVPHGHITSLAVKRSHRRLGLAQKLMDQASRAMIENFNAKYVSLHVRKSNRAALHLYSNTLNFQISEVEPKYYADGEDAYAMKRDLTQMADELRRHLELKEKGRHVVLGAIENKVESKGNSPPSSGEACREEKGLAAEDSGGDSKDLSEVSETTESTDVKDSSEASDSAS
Test: co-IP

B1: NAA15 (natural protein)
chain: MPAVSLPPKENALFKRILRCYEHKQYRNGLKFCKQILSNPKFAEHGETLAMKGLTLNCLGKKEEAYELVRRGLRNDLKSHVCWHVYGLLQRSDKKYDEAIKCYRNALKWDKDNLQILRDLSLLQIQMRDLEGYRETRYQLLQLRPAQRASWIGYAIAYHLLEDYEMAAKILEEFRKTQQTSPDKVDYEYSELLLYQNQVLREAGLYREALEHLCTYEKQICDKLAVEETKGELLLQLCRLEDAADVYRGLQERNPENWAYYKGLEKALKPANMLERLKIYEEAWTKYPRGLVPRRLPLNFLSGEKFKECLDKFLRMNFSKGCPPVFNTLRSLYKDKEKVAIIEELVVGYETSLKSCRLFNPNDDGKEEPPTTLLWVQYYLAQHYDKIGQPSIALEYINTAIESTPTLIELFLVKAKIYKHAGNIKEAARWMDEAQALDTADRFINSKCAKYMLKANLIKEAEEMCSKFTREGTSAVENLNEMQCMWFQTECAQAYKAMNKFGEALKKCHEIERHFIEITDDQFDFHTYCMRKITLRSYVDLLKLEDVLRQHPFYFKAARIAIEIYLKLHDNPLTDENKEHEADTANMSDKELKKLRNKQRRAQKKAQIEEEKKNAEKEKQQRNQKKKKDDDDEEIGGPKEELIPEKLAKVETPLEEAIKFLTPLKNLVKNKIETHLFAFEIYFRKEKFLLMLQSVKRAFAIDSSHPWLHECMIRLFNTAVCESKDLSDTVRTVLKQEMNRLFGATNPKNFNETFLKRNSDSLPHRLSAAKMVYYLDPSSQKRAIELATTLDESLTNRNLQTCMEVLEALYDGSLGDCKEAAEIYRANCHKLFPYALAFMPPGYEEDMKITVNGDSSAEAEELANEI
  binding capacity relative to WT: 0.5 relative to WT (WT = 1.0)
